Experimental data reported in patent US20130217633A1.

Columns and labels:
[1] = target: wild type Bcl-2 (overexpressed in WEHI7.2 cells) (UniProt P10415); test: cell-based or functional assay
[2] = target: Bcl-2 of primary chronic lymphocytic leukemia (CLL) cells (human) (UniProt P10415); test: cell-based or functional assay
Bcl-2 of primary chronic lymphocytic leukemia (CLL) cells (human), sequence (P10415 whole entry): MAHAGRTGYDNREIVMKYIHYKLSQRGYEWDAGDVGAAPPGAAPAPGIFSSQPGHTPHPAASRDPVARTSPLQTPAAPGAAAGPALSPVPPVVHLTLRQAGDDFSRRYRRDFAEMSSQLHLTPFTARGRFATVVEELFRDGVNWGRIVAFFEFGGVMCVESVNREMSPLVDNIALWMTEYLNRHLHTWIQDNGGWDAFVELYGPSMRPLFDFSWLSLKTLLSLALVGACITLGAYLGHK

wild type Bcl-2 (overexpressed in WEHI7.2 cells), sequence (P10415 whole entry): as above

“TAT-IDP (IP3R-derived peptide fused with the cell-penetrating peptide of HIV TAT)” showed a Ca^2+ spikes per cell (single cell Ca2+ imaging, Bcl-2-positive WEHI7.2 cells) (Ca^2+ spikes per cell) [1] of 6, a percentage of Bcl-2-positive WEHI7.2 cells with a sustained pattern of Ca^2+ oscillations (three or more peaks) [1] of 36% and a percentage of Bcl-2-positive WEHI7.2 cells with one or two isolated Ca^2+ oscillations [1] of 22%. It also gave a percentage of primary CLL cells with Ca2+ elevation [2] of 26%.
